Assay results reported in the nanobody polyreactivity screen of Harvey et al. (2022).

Test: yeast display, Sf9 membrane polyspecificity reagent, FACS + sequencing; frameworks hold sequencing errors
Method in brief: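 In a synthetic yeast display library (Saccharomyces cerevisiae BJ5465), nanobody expression was induced with galactose for 36–48 hours. FACS gates were set low and high (top ~1%) using anti-HA fluorescence for expression and streptavidin fluorescence for binding of the Sf9 membrane reagent. Each polyreactivity label is drawn from the gate of origin.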

Sequence | polyreactivity (PSR sort gate)
QVQLVESGGGLVQAGGSLRLSCAASGRIFVGYAMGWYRQAPGKERELVAGIRYSGGSTYYADSVKGRFTISRDNAKNTVYLQMNSLKPEDTAVYYCANQVWHYAGRPNYKYDYWGQGTQVTVSS | low polyreactivity
QVQLVESGGGLVQAGGSHRLSCAASGIIFYRNAMGWYRQAPGKEREFVAAISSSGTNTYYADSVKGRFTISRDNAKITVYLQMNSLKPEDTAVYYCNADPDDGYFSDFDYWGQGTQVTVSS | low polyreactivity
QDQLVESGGCLVQAGGSLRLSCAASGNIFDTYVMGWYRQAPGKEMELVAAITSDGGTYYADSVKARFTISRDNAKNTVYLQMNSLKPEDTAVYYCAADTYYYPIHDYWGQGTQVTVSS | low polyreactivity
QVQLVESGGGLVQAGGSLRLSCAASGSTFLPNAMGWYRQAPGTERELVATITFDGGSTYYADSVKGRFTISRDNAKNTVYLQMNSLKPEDTAVYYCNTVELYWRGYDYWGQGTQVTVSS | high polyreactivity
QVQLVESGGGLVQAGGSLRLSCAASGRTFYRYVMGWYRQAPGKERELVAAITPGGSTYADSVKGRFTISRDNAKNTVYLQMNSLKPEDTAVYYCNAKVGAYLNYGYWGQGTQVTVSS | low polyreactivity
QVQLVESGGGLVQAGGSLRLSCAASGNTFTFNAMGWYRQAPGKERELVAAINRGDSTNYADSVKGRFTISRDNAKNTVYLQMNSLKPEDTAVYYCAAGTLYWNYNRYDLYYYWGQGTQVTVSS | high polyreactivity
QVQLVESGGGLVQAGGSLRLSCAASGIFRGYAMGWYRQAPGKERELVAAISWGGGSTYYADSVKGRFTISRDNAKNTVYLQMNSLKPEDTAVYYCIAADFGWDYAYYYWGQGTQVTVSS | low polyreactivity
QVQLVESGGGLVQAGGSLRLSSAASGSNFGYKAMGWYRQEPGKEREMVAAISYSGASTYYADSVKGRFTISRDNAKNTVYLQKHSLKPEDTAVYYCAAGWKRFSGRKHYYWGQGTQVTVSS | high polyreactivity
QVQLVESGGGLVQAGGSLRLSCAASGITFWPYALGWYRPAPGKERELVAAIRASVGRTYYADSVKGRFTISRDNAKNTVYLQMNSLKPEDTAVYYCNAYGRYGKFRVEYDYWGQGTQVTVSS | low polyreactivity
QVQLVESGGGLVQAGGSLRLSCAASGSTFYGYAMGSYRQAPGKERELVAAISYSGSSTYYADSVKGRFTISRDNAKNTVYLQMNSLKPEDTAVFYCAVDDTHPFGPDGGGDYWGQCTQVTVSS | low polyreactivity
QVQLVESGGCLVQAGGSLRLSCAASGRTFSYYAMGWYRQAPGKERELVAAIDWSGSRTYYADSVKGRFTISRDNAKNTVYLQMNSLKPEDTAVYYCIADRTRGYQRYDYWGQGTQVTVSS | high polyreactivity
QVQLVESGGGLVQAGGSLRLSCAASGSTFFHNAMGWYRQAPGKERELVAAINWNGGSTYYADSVKGRFTISRDNAKNTVYLQMNSLKPEDTAVYYCAADIYTYLGAYYIGYYWGQGTQVTVSS | low polyreactivity
QVQLVESWGGLVQAGGSLRLSCAASGSLFTSNAMVWYRQAPGKEREFVAGIDYSTGGTSYADSVKGRFTISRDNAKNNVYLQMNRLLPEDTAVYYCNADRWLVYVHTWEYDYWGQGTQVTVSS | low polyreactivity
QVQLVESGGGLVQAGGSLRLSCAASGRIFYRNAMGWYRQAPGQERELVAGITRGGSTNYADSVKGRFTLSRDNAKNTVFLHMNSLKPEDTAVYYCAASWPSSLTYYYWGQGSQVTVSS | low polyreactivity
QVQLVESGGGLVQAVGSLRLSCAASGGIITSSAMGWYRLAPGKEWELVAAITGIGGRTYYADSVKGRFTISRDNAKNTVYLQMNSLKPEDTAVYYCKAAYTYVTAWYYYCGQGTQVTVSS | high polyreactivity
QVQLVESGGGLVQAGGSLRLSCAASGSTLAGYAMGWYRQAPGKERELVATISWSDGSTSYADSVKGRFTFSRDNAKNTVYLQLNSLKPEDTAVSYCAADAITNYDGRKSRRSYSAYDYWGQGTQVTVSS | low polyreactivity
QVQLVESGGGLVQAGGSLRLSCAASGSTFGINDMGRYRQAPGKERELVASITRRGGTTYYADSVKGRFTISRDNAKNTVYLHMNSLKPEDTAVYYCNKTYRYGTPLYDYWGQGTQVTVSS | high polyreactivity
QVQLVESGGGLVQAGGSLRLSCAASGRTFDGNAMGWYRQAPGKERELVAAISQGGGSTYYADSVKGRFTISRDNAKNTVYLQMNSLKPEDTAVYYCNAVGYTPRKPSKFDYWGQGTQVTVSS | low polyreactivity
QVQLVESGGGLVQAGGSLRLSCAASGITFNRYVMGWYRQAPGKERELVAANSRTGGSTYYADSVKGRFTISRDTGKNTVYLQMNILKPEDTAVYYCAAATSPGIYDYWGQGTQVTVSS | high polyreactivity
QVQLVESGGRLVQAGRSLRLSCAASGSIFHDYAMGWYRQAPGKERELVAVISTSGGSTYYADSVKGRFTISRDNAKNTVYCQMNRLKPEDTAFYYCNARTVGPYPSHAALEYDSWGQGTQVTVSS | low polyreactivity
QVQLVESGGGLVQAGGSLRLSCAASGGIFWFNAMGRYRQAPGKEREFVAAITWRGGSTYYADSVKGRFTISRDNAKNTVYLQMHSLKPEDTAVYYCAATYWWHRSSGWDRVEYWGQGTQVNVSS | high polyreactivity
QVQLVESGGGLVQAGGSLRLSCAASGSTFSNNAMGWYRQAPGKERELVASTNYADSVKGRFTISRDNEKNTVYLQMNSLKPEDTAVYYCAAGAYPSWGLDFWGQGTQVTVSS | low polyreactivity

Sequence | polyreactivity (PSR sort gate)
QVQLVESGGGLVQAGGSLRLSCAASGSIFALYAMGWSRQEPGKEREFVAAISYRGGRTYYADSVKGRFTISRDNAKNTVYLQMNSLKPEDTAVYYCDTDFPGKFDYWGQGTQVTVSS | low polyreactivity
HVQLQESGVGLVQAGGSLRLSCAASGTISQEYWMGWYRQAPGKEREFVAAIGLGSNTNYADSLKGRFTISRDNSTNTVFLQMNSLKPEDTAVYYCAVSVWQYSDHVYRGQGTQVTVSS | low polyreactivity
QVQLVESGGGLVQAGGSLRLICAASGLTFYVYAMGWYRQAPGKERELVAAISQRGGSTYYADSVKGRFKISRDNAKNTVYLQMNSLNPEDTAVYYCAKYTVQYAISHYDYWGQGTQVTVSS | high polyreactivity
QVQLVESGGGLVQAGGSLRLSCAASGLIFNWNDMGWYRQAPGKERELVAAISGDGGITYYADSVKGRFTISRDNAKNTVFLQMNSLKPEDTAVYYCNAGFTWGDWYDYWGQGTQVTVSS | low polyreactivity
QVQLVESGGGLVQAGGSLRLSCAASGIIFRLYAMGWYRQAPGKERELVAAISYRGGSTYYADSVKGRFTISRDNAKNTVYLQMNSLKPEDTAVYYCAARNPRYSFYYWGQGTQVTVSS | high polyreactivity
QVQLVESGGGLVQAGGSHRLSCAASGRIFVIYAMGWNRQAPGKERELVALITRGSSTYADSVKGRFTISRDNAKNTVYLQMYSLKPEDTAVYYCAARRYVTVDYDYWGQGTQVTVSS | high polyreactivity
QVHLVESGGGLVQAGGSLRLSCAASGRTFFRYAMGWYTQAPGKERELVAAITRSGGSTYYADSVKGRFTISRDNAKNTVYLEMNSLKPEDTAVYYCAAPREAYSRGYDSWGQGTQVTVSS | high polyreactivity
QVQLVESGGGLVQAGGSLRLSCAASGFIFWENGMGWYRQAPGKERELVAAISSGVGRTYYADSVKGRFTISRDNAKNTVYLQMNSLKPEDTAVYYCNRARYYREFDYWGQGTQVTVSS | high polyreactivity
QVQLVESGGGIVQAGGSLRLSCAASGRIFYGYTMGWYRQAPGKERELVASIDYSTGRTYYADSVKGRFTISRDNAKNTVYLLMNSLKPEDTAVYYCNADPNYSFLRYDYWGQGTQVTVSS | high polyreactivity
QVQLVESGGGLVQAGGSLRLSCAASGRTFGLYAMGWYRPAPGKERELVADINGSGTRTYYADSVKGRFTISRDYAKNTVYLQMNSLKPEDTAVYYCYGRYHWLYYWGQGTQVTVSS | high polyreactivity
QVQLVETGGGLVQAGGSLRLSCAASGIIFSRYAMGWYRQAPGKERELVAAISTSGGRTFYADSVKGRFTISRDNAKNTVYLQMNSLKPEDTAVYYCAVDDLGWTTGGYLYLYGYWGQGTQVTVSS | high polyreactivity
QVQLVESGGGLVQAGGSLRLSCAASGRIFRAYAMGWYRQAPGKERELVAAITSGVSTNYADSVKGRFTISRDNAKNTVYLQMNSLKPEDTAVYYCAADIYVIYEYWGQGTQVTVSS | low polyreactivity
QVQLVESGGGLVQAGGSLRLSCAASGSTFPANAMGWYRPAPGKERELVATSSWSGGRTYYADSVKGRFTISRDNAKNTVDLQMNSLKPEDTAVYYCAKGYYWLSTYGDSRYGYWGQGTQVTVSS | high polyreactivity
QVQLVESGGGLVQAGGSLRLSCAASGRIFDIYAMGWYRQAPGKERELVAAIDESGGSTYYADSVKGRFTISRDNAKNTVYLQMNSLKPEDTAVYYCATDDTWTISYGWYWFTYEYWGQGTQVTVSS | low polyreactivity
QVQLGESRGGLVQAGGSLRLSCAASGRTFTGYAMGWYRQAPGKERELVAAITVSSGRTYYADSVKGRFTISRDNAKNTVYLQMNSLKPEDTAVYYCAKRFRSTHLWKFGGYDYWGQGTQVTVSS | high polyreactivity
QVQLVESGGGLVQAGGSLRLSSAASGFTFRGYGMGWYRQAPAKERELVAAITSSGGSTYYADSVKGRFTISRDNAKNTVYLQMNSLKPEDTAVYYCAADRYTRYRYNYWGQGTQVTVSS | high polyreactivity
QVQLVESGGGLVQAGGSLRLSCAASGSIFNINAMGWYRQAPGKEREFVAAIDYSDSTYYADSVKGRFTISRDNAKNTVYLQMNSLKPEDTAVYYCAADVWKDGYWGDYWGQGTQVNVSS | high polyreactivity
QVQLVESGGGLVQAGGSLRLSCAASGRIFTYYAMGWYRQAPGKERELVAAINGRGGRTYYADSVKGRFTISRDNAKNTVYLQMNSLKPEDTAVYYCAARGYAPDTYGYWGQGTQVTVSS | high polyreactivity
QVQLVESGGGLVQAGGSLRLSCAASGITFPYYAMGWYRQAPGKERELVAAISSSGGSTYYADSVKGRFTISRDNAKNTVYLQMNSLKPEDTAVYYCAAQRYINYDYWGQGTQVTVSS | high polyreactivity
QVQLVESGGGLVQAGGSLRLSCAASGSISNRNAMGWYRQAPGKERELVAAITYSGGSTYYADSVKGRFTISRDNAKNTVYLQMNSLKPEDTAVYYCAKDHYRFRYDYWGQGTQVTVSS | low polyreactivity
QVQLVESGGGLVQAGGSLRLSCAASGSTFYGNAMGWYRQAPGKERELVAAIRWRGGRTYYADSVKGRFTISRDNAKNTVYLQMNSLKPEDTAVYYCNALPGVSHTQYDRVGYWGQGTQVTVSS | high polyreactivity
